{
  "source": "paper PMC6753193",
  "about": "(2019)",
  "binders": {"B1": {"name": "pRb-Tat hybrid peptide (peptide)", "peptide": "HIPR[pS]PYKFPSSPLRKKCCFHCQVCFITK", "modifications": "cysteine pairing not given here"}},
  "target": "recombinant human PP1α (residues 7–300) (human, UniProt P62136 7-300)",
  "sequence (P62136 7-300)": "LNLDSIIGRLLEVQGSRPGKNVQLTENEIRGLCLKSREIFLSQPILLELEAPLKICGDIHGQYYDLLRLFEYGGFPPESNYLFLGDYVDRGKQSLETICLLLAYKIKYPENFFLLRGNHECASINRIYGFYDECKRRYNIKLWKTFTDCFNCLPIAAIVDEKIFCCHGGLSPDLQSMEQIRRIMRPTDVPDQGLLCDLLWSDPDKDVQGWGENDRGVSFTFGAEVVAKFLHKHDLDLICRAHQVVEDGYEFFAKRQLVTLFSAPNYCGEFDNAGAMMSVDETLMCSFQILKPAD",
  "assay": "SPR",
  "note": "Where no end group is shown, it is not given here. [ ]: non-standard residue; d: D form. pS = N[C@@H](COP(=O)(O)O)C(=O)O",
  "data": [
    {"binder": "B1", "values": [
      {"measurement": "koff", "result": 0.00394, "unit": "s⁻¹"}
    ]}
  ]
}
